Reference: US8697349

Target: Cy5-labeled Goat anti mouse IgG (AP127S, available from CHEMICON International Inc.) (goat)
Test: Cy5 fluorescence of antibody at peptide spot on AZO film after 17 h light irradiation, array scanner; reference: water instead of peptide

**Q.** ATAAIAAIAAAI [synthetic peptide ATA …] was tested. Which fixability, fold over Comparative Example 1 did it give?
**A.** > 10 fold

**Q.** Which fixability, fold over Comparative Example 1 does the source give for FATAIAAIAAAI [synthetic peptide FAT …] here?
**A.** > 10 fold

**Q.** WATAIAAIAAAI [synthetic peptide WAT …] was tested. Which fixability, fold over Comparative Example 1 did it give?
**A.** > 10 fold

**Q.** Which fixability, fold over Comparative Example 1 does the source give for VATAIAAIAAAI [synthetic peptide VAT …] here?
**A.** > 10 fold

**Q.** LATAIAAIAAAI [synthetic peptide LAT …] was tested. Which fixability, fold over Comparative Example 1 did it give?
**A.** > 10 fold

**Q.** AATAIAAIAAAI [synthetic peptide AAT …] was tested. Which fixability, fold over Comparative Example 1 did it give?
**A.** > 10 fold

**Q.** For PATAIAAIAAAI [synthetic peptide PAT …], which fixability, fold over Comparative Example 1 is on record?
**A.** > 10 fold

**Q.** How did the fixability, fold over Comparative Example 1 turn out when IHTAIAAIAAAI [synthetic peptide IHT …] was run?
**A.** > 10 fold

**Q.** Which fixability, fold over Comparative Example 1 does the source give for IPTAIAAIAAAI [synthetic peptide IPT …] here?
**A.** > 10 fold

**Q.** With IITAIAAIAAAI [synthetic peptide IIT …] as the molecule, how does the fixability, fold over Comparative Example 1 read?
**A.** > 10 fold

**Q.** IAAAIAAIAAAI [synthetic peptide IAA …] was tested. Which fixability, fold over Comparative Example 1 did it give?
**A.** > 10 fold

**Q.** With IMTAIAAIAAAI [synthetic peptide IMT …] as the molecule, how does the fixability, fold over Comparative Example 1 read?
**A.** > 10 fold

**Q.** How did the fixability, fold over Comparative Example 1 turn out when ISTAIAAIAAAI [synthetic peptide IST …] was run?
**A.** > 10 fold

**Q.** For ITTAIAAIAAAI [synthetic peptide ITT …], which fixability, fold over Comparative Example 1 is on record?
**A.** > 10 fold

**Q.** Which fixability, fold over Comparative Example 1 does the source give for IQTAIAAIAAAI [synthetic peptide IQT …] here?
**A.** > 10 fold

**Q.** How did the fixability, fold over Comparative Example 1 turn out when IASAIAAIAAAI [synthetic peptide IAS …] was run?
**A.** > 10 fold

**Q.** For IGSAIAAIAAAI [synthetic peptide IGS …], which fixability, fold over Comparative Example 1 is on record?
**A.** > 10 fold

**Q.** For IVSAIAAIAAAI [synthetic peptide IVS …], which fixability, fold over Comparative Example 1 is on record?
**A.** > 10 fold

**Q.** How did the fixability, fold over Comparative Example 1 turn out when ISSAIAAIAAAI [synthetic peptide ISS …] was run?
**A.** > 10 fold

**Q.** With ITSAIAAIAAAI [synthetic peptide ITS …] as the molecule, how does the fixability, fold over Comparative Example 1 read?
**A.** > 10 fold

**Q.** How did the fixability, fold over Comparative Example 1 turn out when IQSAIAAIAAAI [synthetic peptide IQS …] was run?
**A.** > 10 fold

**Q.** Which fixability, fold over Comparative Example 1 does the source give for VAAAIAAIAAAI [synthetic peptide VAA …] here?
**A.** > 10 fold

**Q.** Which fixability, fold over Comparative Example 1 does the source give for INSAIAAIAAAI [synthetic peptide INS …] here?
**A.** > 10 fold

**Q.** With IAYAIAAIAAAI [synthetic peptide IAY …] as the molecule, how does the fixability, fold over Comparative Example 1 read?
**A.** > 10 fold

**Q.** Which fixability, fold over Comparative Example 1 does the source give for IAEAIAAIAAAI [synthetic peptide IAE …] here?
**A.** > 10 fold

**Q.** Which fixability, fold over Comparative Example 1 does the source give for IAIAIAAIAAAI [synthetic peptide IAI …] here?
**A.** > 10 fold

**Q.** Which fixability, fold over Comparative Example 1 does the source give for FAAAIAAIAAAI [synthetic peptide FAA …] here?
**A.** > 10 fold

**Q.** How did the fixability, fold over Comparative Example 1 turn out when PAAAIAAIAAAI [synthetic peptide PAA …] was run?
**A.** > 10 fold

**Q.** With AAAAIAAIAAAI [synthetic peptide AAA …] as the molecule, how does the fixability, fold over Comparative Example 1 read?
**A.** > 10 fold

**Q.** How did the fixability, fold over Comparative Example 1 turn out when LAAAIAAIAAAI [synthetic peptide LAA …] was run?
**A.** > 10 fold

**Q.** For QAAAIAAIAAAI [synthetic peptide QAA …], which fixability, fold over Comparative Example 1 is on record?
**A.** > 10 fold

**Q.** How did the fixability, fold over Comparative Example 1 turn out when IATAIAAIAAAI [synthetic peptide IAT …] was run?
**A.** > 10 fold

Target: Cy5-labeled Goat anti mouse IgG (AP127S, available from CHEMICON International Inc.) (goat)
Test: Rabbit anti goat IgG fixed on AZO film via synthetic peptides, probed with Cy5-labeled goat IgG, array scanner; reference: antibody directly light-fixed

**Q.** With “anti goat IgG rabbit-IgG (A50-100A, available from Bethyl Laboratories, Inc.) (antibody)” as the molecule, how does the immobilized antibody activity, fold over Comparative Example 2 read?
**A.** 3 to 30 fold
